Assay results taken from patent publication US20160264649A1.

What was measured:
Test in all cases: cell-based or functional assay
[1] = molecular target: HIV-1 MGRM-C-019 Env on pseudovirus (HIV-1)
[2] = molecular target: HIV-1 MGRM-Chronic-B-010 Env on pseudovirus (HIV-1)
[3] = molecular target: HIV-1 MGRM-G-011 Env (HIV-1)
[4] = molecular target: HIV-1 MGRM-AE-006 Env (HIV-1)
[5] = molecular target: HIV-1 MGRM-AG-006 Env (HIV-1)
[6] = molecular target: HIV-1 MGRM-G-016 Env (HIV-1)
[7] = molecular target: HIV-1 THR0.18 (Acute) Env on pseudovirus (HIV-1)
[8] = molecular target: HIV-1 MGRM-D-019 Env (HIV-1)
[9] = molecular target: HIV-1 MGRM-Chronic-B-018 Env on pseudovirus (HIV-1)
[10] = molecular target: HIV-1 MGRM-D-021 Env (HIV-1)
[11] = molecular target: HIV-1 93IN905 Env on pseudovirus (HIV-1)
[12] = molecular target: HIV-1 MGRM-G-014 Env (HIV-1)
[13] = molecular target: HIV-1 MGRM-C-014 Env on pseudovirus (HIV-1)
[14] = molecular target: HIV-1 LAVI_C22 Env on pseudovirus (HIV-1)
[15] = molecular target: HIV-1 MGRM-F1-018 Env (HIV-1)
[16] = molecular target: HIV-1 APV_17 Env on pseudovirus (HIV-1)
[17] = molecular target: HIV-1 MGRM-C-012 Env on pseudovirus (HIV-1)
[18] = molecular target: HIV-1 MGRM-AG-009 Env (HIV-1)
[19] = molecular target: HIV-1 93IN905 Env (HIV-1)
[20] = molecular target: HIV-1 MGRM-G-001 Env (HIV-1)
[21] = molecular target: HIV-1 MGRM-D-012 Env (HIV-1)
[22] = molecular target: HIV-1 98CN006 Env on pseudovirus (HIV-1)
[23] = molecular target: HIV-1 MGRM-AE-007 Env (HIV-1)
[24] = molecular target: HIV-1 MGRM-AE-001 Env (HIV-1)
[25] = molecular target: HIV-1 MGRM-D-016 Env (HIV-1)
[26] = molecular target: HIV-1 MGRM-G-028 Env (HIV-1)
[27] = molecular target: HIV-1 MGRM-D-013 Env (HIV-1)
[28] = molecular target: HIV-1 MGRM-D-026 Env (HIV-1)
[29] = molecular target: HIV-1 MGRM-AE-003 Env (HIV-1)
[30] = molecular target: aMLV envelope (negative control pseudovirus)
HIV-1 APV-13 Env (HIV-1) = molecular target: HIV-1 APV-13 Env (HIV-1)
[31] = molecular target: HIV-1 MGRM-G-027 Env (HIV-1)
[32] = molecular target: HIV-1 92RW020 Env (HIV-1)
[33] = molecular target: HIV-1 MGRM-G-015 Env (HIV-1)
[34] = molecular target: HIV-1 MGRM-AG-008 Env (HIV-1)
[35] = molecular target: HIV-1 MGRM-Chronic-B-011 Env on pseudovirus (HIV-1)
[36] = molecular target: HIV-1 MGRM-G-009 Env (HIV-1)
[37] = molecular target: HIV-1 MGRM-C-024 Env on pseudovirus (HIV-1)
[38] = molecular target: HIV-1 MGRM-Chronic-B-012 Env on pseudovirus (HIV-1)
[39] = molecular target: HIV-1 IAVI-C3 Env (HIV-1)
[40] = molecular target: HIV-1 MGRM-D-011 Env (HIV-1)
[41] = molecular target: HIV-1 MGRM-G-006 Env (HIV-1)
[42] = molecular target: HIV-1 6535.3 (Acute) Env on pseudovirus (HIV-1)
[43] = molecular target: HIV-1 98CN009 Env on pseudovirus (HIV-1)
[44] = molecular target: HIV-1 MGRM-C-008 Env on pseudovirus (HIV-1)
[45] = molecular target: HIV-1 MGRM-F1-004 Env (HIV-1)
[46] = molecular target: HIV-1 92UG005 Env (HIV-1)
[47] = molecular target: HIV-1 MGRM-D-024 Env (HIV-1)
[48] = molecular target: HIV-1 MGRM-AE-005 Env (HIV-1)
[49] = molecular target: HIV-1 MGRM-Chronic-B-001 Env on pseudovirus (HIV-1)
[50] = molecular target: HIV-1 98IN022 Env on pseudovirus (HIV-1)
aMLV envelope = molecular target: aMLV envelope

1495_C14 (PGC14) (antibody)
IC50 [1]: 12 mg/L | IC50 [2]: 27 mg/L | IC50 (µg/ml), pseudovirus neutralization [3]: > 50 µg/mL | IC50 (µg/ml), pseudovirus neutralization [4]: > 50 µg/mL | IC50 (µg/ml), pseudovirus neutralization [5]: > 50 µg/mL | IC50 (µg/ml), pseudovirus neutralization [6]: > 50 µg/mL | IC50 [7]: > 50 mg/L | IC50 (µg/ml), pseudovirus neutralization [8]: > 50 µg/mL | IC50 [9]: > 50 mg/L | IC50 (µg/ml), pseudovirus neutralization [10]: > 50 µg/mL | IC50 [11]: 19 mg/L | IC50 (µg/ml), pseudovirus neutralization [12]: > 50 µg/mL | IC50 [13]: > 50 mg/L | IC50 [14]: 25 mg/L | IC50 (pseudovirus neutralization) [15]: > 50 mg/L | IC50 [16]: > 50 mg/L | IC50 [17]: > 50 mg/L | IC50 (µg/ml), pseudovirus neutralization [18]: > 50 µg/mL | neutralization IC50 [19]: > 50 mg/L | IC50 (µg/ml), pseudovirus neutralization [20]: > 50 µg/mL | IC50 (µg/ml), pseudovirus neutralization [21]: > 50 µg/mL | IC50 [22]: > 50 mg/L | IC50 (µg/ml), pseudovirus neutralization [23]: > 50 µg/mL | IC50 (µg/ml), pseudovirus neutralization [24]: > 50 µg/mL | IC50 (µg/ml), pseudovirus neutralization [25]: > 50 µg/mL | IC50 (µg/ml), pseudovirus neutralization [26]: > 50 µg/mL | IC50 (µg/ml), pseudovirus neutralization [27]: > 50 µg/mL | IC50 (µg/ml), pseudovirus neutralization [28]: > 50 µg/mL | IC50 (µg/ml), pseudovirus neutralization [29]: > 50 µg/mL | IC50 (pseudovirus neutralization) [30]: > 50 mg/L | neutralization IC50 (HIV-1 APV-13 Env (HIV-1)): > 50 mg/L | IC50 (µg/ml), pseudovirus neutralization [31]: > 50 µg/mL | neutralization IC50 [32]: 28.6 mg/L | IC50 (µg/ml), pseudovirus neutralization [33]: > 50 µg/mL | IC50 (µg/ml), pseudovirus neutralization [34]: 45 µg/mL | IC50 [35]: > 50 mg/L | IC50 (µg/ml), pseudovirus neutralization [36]: > 50 µg/mL | IC50 [37]: > 50 mg/L | IC50 [38]: > 50 mg/L | neutralization IC50 [39]: > 50 mg/L | IC50 (µg/ml), pseudovirus neutralization [40]: > 50 µg/mL | IC50 (µg/ml), pseudovirus neutralization [41]: > 50 µg/mL | IC50 [42]: 35 mg/L | IC50 [43]: 43 mg/L | IC50 [44]: > 50 mg/L | IC50 (pseudovirus neutralization) [45]: > 50 mg/L | IC50 (µg/ml), pseudovirus neutralization [46]: > 50 µg/mL | neutralization IC50 [46]: > 50 mg/L | IC50 (µg/ml), pseudovirus neutralization [47]: > 50 µg/mL | IC50 (µg/ml), pseudovirus neutralization [48]: > 50 µg/mL | IC50 [49]: > 50 mg/L | IC50 [50]: 9 mg/L | neutralization IC50 (aMLV envelope): > 50 mg/L
